Results as given in patent US10227388B2, “Peptides and combination of peptides for use in immunotherapy against non-small cell lung cancer and other cancers” (immatics biotechnologies GmbH, priority 2015, dated 2019).

Target: HLA-A*02:01 (Homo sapiens, UniProt P04439, D140Y/D185E/D98H/E176V/E277Q/G131W/G231S/I119V/I121R/I166T/I218V/L300P/L318F/N151K/N90K/P208A/P217A/Q86G/Q94H/R138H/R169H/T345S)
Test: MHC binding assay (UV-ligand exchange, ELISA, peptide exchange yield)
Details: binding of HLA-class I restricted peptides to HLA-A*02:01
How it was run: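 Peptide–HLA-A*02:01 complexes made by UV-ligand exchange of a UV-cleavable peptide for the test peptide. Exchange yield measured by ELISA: 100-fold diluted monomers captured on streptavidin, 1 h at 37° C., detected with HRP anti-β2m and TMB, absorbance at 450 nm.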

Row | Substance | Peptide exchange (MHC class I binding score, peptide exchange yield)
1 | 59 (IMEDIILTL; listed as Homo sapiens) [compound 59] | ″+++″ (≥50% = +++)
2 | 190 (FLSSLTETI; listed as Homo sapiens) [compound 190] | ″+++″ (≥50% = +++)
3 | 253 (GLDAATATV; listed as Homo sapiens) [compound 253] | ″++″ (≥20% = ++)
4 | 322 (TLMTSLPAL; listed as Homo sapiens) [compound 322] | ″+++″ (≥50% = +++)
5 | 277 (LLPPLESLATV; listed as Homo sapiens) [compound 277] | ″++″ (≥20% = ++)
6 | 365 (YVIDQGETDVYV; listed as Homo sapiens) [compound 365] | ″+++″ (≥50% = +++)
7 | 367 (SLQNHNHQL; listed as Homo sapiens) [compound 367] | ″+++″ (≥50% = +++)
8 | 565 (ALQETPTSV; listed as Homo sapiens) [compound 565] | ″++″ (≥20% = ++)
9 | 371 (FLQAHLHTA; listed as Homo sapiens) [compound 371] | ″++++″ (≥75% = ++++)
10 | 303 (AILPQLFMV; listed as Homo sapiens) [compound 303] | ″++++″ (≥75% = ++++)
11 | 78 (SLFSSLEPQIQPV; listed as Homo sapiens) [compound 78] | ″+++″ (≥50% = +++)
12 | 463 (SLVESHLSDQLTL; listed as Homo sapiens) [compound 463] | ″+++″ (≥50% = +++)
13 | 206 (VLQEGKLQKLAQL; listed as Homo sapiens) [compound 206] | ″+++″ (≥50% = +++)
14 | 432 (TLIEESAKV; listed as Homo sapiens) [compound 432] | ″++″ (≥20% = ++)
15 | 614 (LLLPDQPPYHL; listed as Homo sapiens) [compound 614] | ″+++″ (≥50% = +++)
16 | 612 (YLYNEGLSV; listed as Homo sapiens) [compound 612] | ″+++″ (≥50% = +++)
17 | 239 (AAFAGKLLSV; listed as Homo sapiens) [compound 239] | ″+++″ (≥50% = +++)
18 | 43 (VLSSLEINI; listed as Homo sapiens) [compound 43] | ″++″ (≥20% = ++)
19 | 204 (KIAENVEEV; listed as Homo sapiens) [compound 204] | ″++″ (≥20% = ++)
20 | 186 (TLFFQQNAL; listed as Homo sapiens) [compound 186] | ″++″ (≥20% = ++)
21 | 504 (GLSDGNPSL; listed as Homo sapiens) [compound 504] | ″++″ (≥20% = ++)
22 | 276 (ALFTFSPLTV; listed as Homo sapiens) [compound 276] | ″+++″ (≥50% = +++)
23 | 223 (ALLENIALYL; listed as Homo sapiens) [compound 223] | ″+++″ (≥50% = +++)

Row | Substance | Peptide exchange (MHC class I binding score, peptide exchange yield)
24 | 516 (AVGPASILKEV; listed as Homo sapiens) [compound 516] | ″++″ (≥20% = ++)
25 | 469 (YLASDEITTV; listed as Homo sapiens) [compound 469] | ″+++″ (≥50% = +++)
26 | 70 (GLLDYPVGV; listed as Homo sapiens) [compound 70] | ″+++″ (≥50% = +++)
27 | 355 (SIQQSIERLLV; listed as Homo sapiens) [compound 355] | ″++″ (≥20% = ++)
28 | 288 (NLINEINGV; listed as Homo sapiens) [compound 288] | ″+++″ (≥50% = +++)
29 | 153 (FLIANVLYL; listed as Homo sapiens) [compound 153] | ″+″ (≥10% = +)
30 | 476 (ALMERTGYSMV; listed as Homo sapiens) [compound 476] | ″+++″ (≥50% = +++)
31 | 403 (KLYDRILRV; listed as Homo sapiens) [compound 403] | ″++″ (≥20% = ++)
32 | 62 (VLLDVSAGQLLM; listed as Homo sapiens) [compound 62] | ″++++″ (≥75% = ++++)
33 | 225 (SLLKVLPAL; listed as Homo sapiens) [compound 225] | ″+++″ (≥50% = +++)
34 | 296 (FMEGAIIYV; listed as Homo sapiens) [compound 296] | ″+++″ (≥50% = +++)
35 | 599 (YLLNDASLISV; listed as Homo sapiens) [compound 599] | ″+++″ (≥50% = +++)
36 | 257 (SIFSAFLSV; listed as Homo sapiens) [compound 257] | ″+++″ (≥50% = +++)
37 | 28 (QLLDETSAITL; listed as Homo sapiens) [compound 28] | ″+++″ (≥50% = +++)
38 | 509 (FLFDTKPLIV; listed as Homo sapiens) [compound 509] | ″+++″ (≥50% = +++)
39 | 106 (LLYDAVHIVSV; listed as Homo sapiens) [compound 106] | ″+++″ (≥50% = +++)
40 | 63 (YLLPSGGSVTL; listed as Homo sapiens) [compound 63] | ″++″ (≥20% = ++)
41 | 493 (GLLGEKTQDLIGV; listed as Homo sapiens) [compound 493] | ″+++″ (≥50% = +++)
42 | 241 (SLVEVNPAYSV; listed as Homo sapiens) [compound 241] | ″+++″ (≥50% = +++)
43 | 211 (LLWPGAALL; listed as Homo sapiens) [compound 211] | ″++″ (≥20% = ++)
44 | 331 (KVDTVWVNV; listed as Homo sapiens) [compound 331] | ″+++″ (≥50% = +++)
45 | 50 (SLSELEALM; listed as Homo sapiens) [compound 50] | ″+++″ (≥50% = +++)
46 | 14 (AAYGGLNEKSFV; listed as Homo sapiens) [compound 14] | ″+++″ (≥50% = +++)
